Results on 6 molecules are retold here after patent US20050008616A1, “Recombinant human interferon-beta-1b polypeptides” (Schering Aktiengesellschaft, priority 2003, published 2005).

Where “and” joins values, the source holds several entries; their conditions need not be identical. Equal entries are not always repeated.

For series [1], the target named is T1, fibroblast-derived native IFN-β (Homo sapiens, UniProt P01574).
T1 construct: host or cells: human fibroblasts (natural producer)
The note with it: partially purified native interferon; cited from earlier work.

A further series has as its target T2, Soybean Agglutinun (soybean, UniProt P05046 33-285, biotinylated (sites not given)).
T2 construct: Bought biotinylated lectin; also called SBA
The experiment in a line: dot blot, probed with biotinylated lectin. The protocol:
Finally, IFN-β-1b lot A was tested for binding to biotinylated lectins from Vector Laboratories.

The test system of series [2] is human amnionic cell line WISH infected with VSV. Format: cell-based, vesicular stomatitis virus. The conditions noted are these: WISH cells infected with VSV, viral plaque reduction.
The subject of the next series is MxA gene. The experiment in a line: MxA gene induction assay (ICLA). Format: cell-based, human. The source says: Based on the specific induction of the MxA gene by type I IFNs in cultured human cells (Von Wussow, P. et al. (1990) Eur. J. Immunol. 20:2015-2019; and Simon, A. et al. (1991) J. Interferon Res. 11:215-219), an immunochemiluminometric (“ICLA”) assay was developed by Files, J. G. et al. (1998) J. Interferon Res. 18:1019-1024. The ICLA assay, which is based on the procedure of Oh, S. K. et al. (1994) J. Immunol. Meth. 176:79-91, detects MXa protein in cell lysates using two non-competing anti-MxA monoclonal antibodies, one of which is conjugated with acridinium ester, which is detected in a luminometer. The MxA gene induction ICLA assay procedure used herein is described in detail in Files, J. G. et al. (1998) supra.

Another series relates to EAE. The conditions noted are these: rodent EAE; cited from earlier work.
The nature of series [3]: IFN-β specific activity, assay not stated.

T1 sequence (P01574 22-187): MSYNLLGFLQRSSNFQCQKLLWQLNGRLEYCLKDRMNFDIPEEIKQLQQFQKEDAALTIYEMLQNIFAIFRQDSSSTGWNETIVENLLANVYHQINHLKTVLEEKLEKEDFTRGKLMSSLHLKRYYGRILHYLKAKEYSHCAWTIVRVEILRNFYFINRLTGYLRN
T2 sequence (P05046 33-285 limits assumed): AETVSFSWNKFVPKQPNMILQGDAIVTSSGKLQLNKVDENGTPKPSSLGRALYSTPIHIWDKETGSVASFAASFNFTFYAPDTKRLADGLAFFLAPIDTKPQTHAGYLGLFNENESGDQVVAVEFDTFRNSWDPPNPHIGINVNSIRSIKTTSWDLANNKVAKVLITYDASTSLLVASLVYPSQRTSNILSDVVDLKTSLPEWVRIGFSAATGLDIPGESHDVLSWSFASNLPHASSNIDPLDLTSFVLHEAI

For `CC(=O)N[C@H]1[C@H]([C@H](O)[C@H](O)CO)OC(O)(C(=O)O)C[C@@H]1O` (stereo partly shown) [sialic acid, N-acetylneuraminic acid], the “effect on antiviral activity of native IFN-β” value in series [1] is “not”.
With “(N-acetylneuraminosyl)galactosylglucosylceramide [GM3]”, in series [1], the “effect on antiviral activity of native IFN-β” value was “abolished”.

B1: peak IFN-β-1b (fraction 5) from the Con A Sepharose column (ligand)
chain: MSYNLLGFLQRSSNFQSQKLLWQLNGRLEYCLKDRMNFDIPEEIKQLQQFQKEDAALTIYEMLQNIFAIFRQDSSSTGWNETIVENLLANVYHQINHLKTVLEEKLEKEDFTRGKLMSSLHLKRYYGRILHYLKAKEYSHCAWTIVRVEILRNFYFINRLTGYLRN
notes: Same polypeptide as IFN-β-1b lot A, after Con A Sepharose chromatography removed most of the non-covalently attached carbohydrate; The note on Met1 for m1 applies here too; also called IFN-β-1b lot A further purified by Con A Sepharose column chromatography
On to B1, for which, in the series with Soybean Agglutinun, the binding result is “no binding”.

B2: peak IFN-β-1b (fraction 5): IFN-β-1b lot A further purified by Con A Sepharose column chromatography, peak fraction 5, carbohydrates largely removed (protein, UniProt P01574 22-187, looked up, variant C17S)
Interferon beta: MSYNLLGFLQRSSNFQSQKLLWQLNGRLEYCLKDRMNFDIPEEIKQLQQFQKEDAALTIYEMLQNIFAIFRQDSSSTGWNETIVENLLANVYHQINHLKTVLEEKLEKEDFTRGKLMSSLHLKRYYGRILHYLKAKEYSHCAWTIVRVEILRNFYFINRLTGYLRN
modifications: interferon beta-1b; deglycosylated fraction
notes: IFN-β-1b lot A further purified by Con A Sepharose column chromatography, peak fraction 5, carbohydrates largely removed
As for B2, the specific activity in series [2] was 3.6×10^7 IU/mg.

B3: IFN-β-1aSER17: IFN-β-1a in which Cys17 is replaced by Ser17, expressed in CHO cells, purified by affinity chromatography (protein, UniProt P01574 22-187, looked up, variant C17S)
Interferon beta: MSYNLLGFLQRSSNFQSQKLLWQLNGRLEYCLKDRMNFDIPEEIKQLQQFQKEDAALTIYEMLQNIFAIFRQDSSSTGWNETIVENLLANVYHQINHLKTVLEEKLEKEDFTRGKLMSSLHLKRYYGRILHYLKAKEYSHCAWTIVRVEILRNFYFINRLTGYLRN
Consider B3, for which, in the series on MxA gene (PNGase F-mediated deglycosylation, non-reducing or reducing conditions, FIG. 2B), the “decrease in specific activity” value is listed as 30-35%. In addition, in the series with MxA gene (overnight (18 hours) incubation, FIG. 2B), the “effect on specific activity of overnight incubation alone” value is on record as “not adversely affected”. Besides, the specific activity with MxA gene (product label specific activity of reconstituted IFN-β-1b/Betaseron® as IFN standard, FIG. 2A) is 1.3 to 2.4×10^8 IU/mg. Also, the “reduction in specific activity” value in the series on MxA gene (reduction in the presence of SDS followed by spontaneous reoxidation, FIG. 2B) is listed as about 20%.

B4: IFN-β-1b: recombinant human IFN-β expressed in E. coli with Cys17 to Ser17 substitution, 165 amino acids, not glycosylated (SEQ ID NO: 2) (protein, listed as Homo sapiens)
chain: MSYNLLGFLQRSSNFQSQKLLWQLNGRLEYCLKDRMNFDIPEEIKQLQQFQKEDAALTIYEMLQNIFAIFRQDSSSTGWNETIVENLLANVYHQINHLKTVLEEKLEKEDFTRGKLMSSLHLKRYYGRILHYLKAKEYSHCAWTIVRVEILRNFYFINRLTGYLRN
As to B4, the “in vivo efficacy in EAE models” value in the series with EAE is “shows in vivo efficacy”. Further, the specific activity in series [3] is 2 to 3×10^7 IU/mg and ~3×10^7 IU/mg.
